The values that follow come from PMC10115800, “Two assembly modes for SIN3 histone deacetylase complexes” (Cell Discovery, 2023).

The chains are these.
B1: WD40 domain-containing protein Prw1 (natural protein, S. pombe, UniProt O14021 1-431, looked up)
chain: MAVSAVPHPSKQAQASEEGINQEKCINEEYKIWKKNSPFLYDLIITRALEWPCMSLQWYPEQQIFAEHGYTEQKMFLGVRADVGKYLLAVASIQLPYLNQTVPPTTMEGASAGDESSLRVNISNLYSHPESVCSAKLMPQDDSCVATVGNYHNDVLVFDKESFESYSSASESPLKPKYRLTKHTQPCTSVCWNFLSKGTLVSGSQDATLSCWDLNAYNESDSASVLKVHISSHEKQVSDVRFHYKHQDLLASVSYDQYLHVHDIRRPDASTKPARSVHAHSGPIHSVAFNPHNDFILATCSTDKTIALWDLRNLNQRLHTLEGHEDIVTKISFSPHEEPILASTSADRRTLVWDLSRIGEDQPAEEAQDGPPELLFMHGGHTSCTIDMDWCPNYNWTMATAAEDNILQIWTPSRSIWGNEQLEEDATAYLS
notes: Prw1 of S. pombe, homolog of S. cerevisiae Ume1 and human RBBP4/7; N-terminal NEE box and C-terminal WD40 domain; two copies in SIN3L (Prw1, Prw1’), one in SIN3S; Endogenous protein; source: endogenous, S. pombe; co-purified with Pst3-3×Flag or Pst2-3×Flag (ANTI-FLAG M2 resin, glycerol gradient)
B2: histone deacetylase Clr6 (enzyme, S. pombe, UniProt O59702 1-405, looked up)
chain: MGFGKKKVSYFYDEDVGNYHYGPQHPMKPHRVRMVHNLVVNYNLYEKLNVITPVRATRNDMTRCHTDEYIEFLWRVTPDTMEKFQPHQLKFNVGDDCPVFDGLYEFCSISAGGSIGAAQELNSGNAEIAINWAGGLHHAKKREASGFCYVNDIALAALELLKYHQRVLYIDIDVHHGDGVEEFFYTTDRVMTCSFHKFGEYFPGTGHIKDTGIGTGKNYAVNVPLRDGIDDESYESVFKPVISHIMQWFRPEAVILQCGTDSLAGDRLGCFNLSMKGHSMCVDFVKSFNLPMICVGGGGYTVRNVARVWTYETGLLAGEELDENLPYNDYLQYYGPDYKLNVLSNNMENHNTRQYLDSITSEIIENLRNLSFAPSVQMHKTPGDFTFENAEKQNIAKEEIMDERV
notes: Clr6, zinc-dependent class I histone deacetylase of S. pombe; two copies in SIN3L (Clr6, Clr6’), one in SIN3S; Endogenous protein; source: endogenous, S. pombe; co-purified with Pst3-3×Flag or Pst2-3×Flag (ANTI-FLAG M2 resin, glycerol gradient)
B3: Rxt3 (natural protein, S. pombe, UniProt O94707 1-351, looked up)
chain: MEEKTPENEQSKKTFDPKDSMKIEETSTNGSSQPSQPSNIKLSIGSILESSNDNGDPEYSENGMGNMNMNTLPMATSTPMSYTKQPSEAKYPNSVWERKGVSDQEENTSSVKRQKTLPTQSSGEEEAKYSHPGAPTATSADSISMESRPSNLSTSLSKTTSYPQFQVRQFVSPIISIDNSALEPFLNRYPASESLFPVTEYEYTPWLEFPLLYSSIGKFVRVTIDIKWLNAAINPRLCRREIWGTDVYTDDSDIATILAHCGCFSLLKPVRKIAVVDLYILPPLVHYKGTRKNQIESRSWSSRQDGISLKIKEVTWKPACASIFENSIHTLTLEERLQARLELSRSSTFKI
notes: Rxt3 of S. pombe, subunit of the Pst3 Lobe of the SIN3L complex; Endogenous protein; source: endogenous, S. pombe; co-purified with Pst3-3×Flag (ANTI-FLAG M2 resin, glycerol gradient)

Conditions in all cases: both partners purified
Assay [1] has as its target T1, Pst1 (S. pombe, UniProt Q09750 1-1522).
T1 construct: Pst1, Sin3 homolog of S. pombe, endogenous subunit of the SIN3L complex; PAH3, HID and HCR are resolved in the model; Endogenous protein, untagged in the Pst3-Flag strain; only part of it is modelled in PDB 8I03; also called Sin3 isoform Pst1; Sin3 homolog Pst1; source: endogenous, S. pombe; co-purified with Pst3-3×Flag (ANTI-FLAG M2 resin, glycerol gradient)
The experiment in a line: cryo-EM structure; endogenous SIN3L complex purified from the Pst3-3×Flag S. pombe strain, cross-linked with 1 mM BS3; 20 mM HEPES pH 7.4, 50 mM NaCl, 2 mM DTT; 3.2 Å.

The target in assay [2] is T2, Pst3 with C-terminal 3× Flag-tag (S. pombe, UniProt O74755 1-1154).
T2 construct: Pst3, Sin3 homolog of S. pombe, subunit of the SIN3L complex; PAH3, HID and HCR are resolved in the model; Endogenous protein; also called Pst3-Flag; Sin3 isoform Pst3; source: endogenous locus tagged, S. pombe; purified (ANTI-FLAG M2 resin, glycerol gradient); not shown: 3× Flag, C-terminal, kept
T2 sequence (looked up): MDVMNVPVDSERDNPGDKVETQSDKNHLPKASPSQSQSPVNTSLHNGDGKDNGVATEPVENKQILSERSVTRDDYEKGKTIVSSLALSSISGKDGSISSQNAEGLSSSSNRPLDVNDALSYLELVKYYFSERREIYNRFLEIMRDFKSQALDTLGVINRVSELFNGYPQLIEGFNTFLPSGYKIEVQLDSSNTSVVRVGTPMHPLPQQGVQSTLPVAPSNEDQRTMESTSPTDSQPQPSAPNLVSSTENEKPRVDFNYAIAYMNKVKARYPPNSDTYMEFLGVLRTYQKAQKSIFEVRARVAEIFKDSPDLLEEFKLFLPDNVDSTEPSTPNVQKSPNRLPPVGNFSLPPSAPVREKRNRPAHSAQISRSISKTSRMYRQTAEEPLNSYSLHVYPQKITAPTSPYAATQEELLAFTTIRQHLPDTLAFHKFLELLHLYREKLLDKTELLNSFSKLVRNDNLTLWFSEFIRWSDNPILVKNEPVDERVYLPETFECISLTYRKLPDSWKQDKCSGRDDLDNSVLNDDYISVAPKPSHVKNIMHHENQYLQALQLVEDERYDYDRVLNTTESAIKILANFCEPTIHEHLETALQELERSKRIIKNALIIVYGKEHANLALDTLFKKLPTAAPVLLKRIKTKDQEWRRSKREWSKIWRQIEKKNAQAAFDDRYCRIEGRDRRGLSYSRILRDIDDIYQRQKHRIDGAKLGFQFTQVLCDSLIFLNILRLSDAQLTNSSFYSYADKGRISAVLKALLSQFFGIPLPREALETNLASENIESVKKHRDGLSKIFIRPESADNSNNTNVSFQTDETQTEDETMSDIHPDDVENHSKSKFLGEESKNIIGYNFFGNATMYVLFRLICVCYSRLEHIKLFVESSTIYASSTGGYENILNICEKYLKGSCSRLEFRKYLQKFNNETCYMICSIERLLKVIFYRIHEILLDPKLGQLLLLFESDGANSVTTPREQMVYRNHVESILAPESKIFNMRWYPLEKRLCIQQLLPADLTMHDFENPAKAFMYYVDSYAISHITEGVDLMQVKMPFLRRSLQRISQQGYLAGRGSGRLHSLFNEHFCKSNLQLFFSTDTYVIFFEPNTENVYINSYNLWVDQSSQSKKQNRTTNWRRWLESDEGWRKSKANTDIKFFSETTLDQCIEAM
The assay is described as above.

Assay [3] concerns the target T3, Pst2 with C-terminal 3× Flag-tag (S. pombe, UniProt O13919 1-1075).
T3 construct: Pst2, Sin3 homolog of S. pombe, organising subunit of the SIN3S complex; all five domains (PAH1/2/3, HID, HCR) are resolved; also called Pst2-Flag; Sin3 isoform Pst2; source: endogenous locus tagged, S. pombe; purified (ANTI-FLAG M2 resin, glycerol gradient); not shown: 3× Flag, C-terminal, kept
T3 sequence (looked up): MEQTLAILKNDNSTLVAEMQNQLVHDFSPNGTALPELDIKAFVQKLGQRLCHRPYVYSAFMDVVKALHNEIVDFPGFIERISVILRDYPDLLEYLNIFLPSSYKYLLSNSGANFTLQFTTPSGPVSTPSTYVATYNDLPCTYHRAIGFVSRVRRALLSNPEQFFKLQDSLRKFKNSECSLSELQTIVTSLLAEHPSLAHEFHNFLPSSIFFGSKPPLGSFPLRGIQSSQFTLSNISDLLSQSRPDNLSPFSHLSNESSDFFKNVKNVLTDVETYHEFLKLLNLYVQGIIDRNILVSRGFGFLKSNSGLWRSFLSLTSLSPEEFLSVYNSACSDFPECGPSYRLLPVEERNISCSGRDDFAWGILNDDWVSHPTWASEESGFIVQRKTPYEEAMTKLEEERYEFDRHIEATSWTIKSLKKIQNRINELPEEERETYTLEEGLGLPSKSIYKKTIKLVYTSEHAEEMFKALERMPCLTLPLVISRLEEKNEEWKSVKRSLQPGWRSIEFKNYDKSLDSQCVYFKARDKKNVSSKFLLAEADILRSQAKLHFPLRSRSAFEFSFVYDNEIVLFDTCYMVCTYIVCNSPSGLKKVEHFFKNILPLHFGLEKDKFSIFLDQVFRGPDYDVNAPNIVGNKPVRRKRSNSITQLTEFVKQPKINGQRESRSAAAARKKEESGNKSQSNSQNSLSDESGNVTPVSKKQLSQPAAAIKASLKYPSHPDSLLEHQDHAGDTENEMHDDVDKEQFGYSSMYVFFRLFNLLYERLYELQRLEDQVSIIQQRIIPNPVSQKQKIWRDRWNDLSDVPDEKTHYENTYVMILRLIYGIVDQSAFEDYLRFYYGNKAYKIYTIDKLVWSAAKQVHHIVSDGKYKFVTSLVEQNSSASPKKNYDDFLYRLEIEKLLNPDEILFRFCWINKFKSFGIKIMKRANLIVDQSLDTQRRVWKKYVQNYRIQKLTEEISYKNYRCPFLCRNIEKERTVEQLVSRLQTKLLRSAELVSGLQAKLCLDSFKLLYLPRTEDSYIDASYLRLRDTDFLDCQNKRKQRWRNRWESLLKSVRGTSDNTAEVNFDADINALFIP
Description: cryo-EM structure; endogenous SIN3S complex purified from the Pst2-3×Flag S. pombe strain, cross-linked with 1 mM BS3; 20 mM HEPES pH 7.4, 50 mM NaCl, 2 mM DTT; 2.9 Å.

Assay [4] has as its target B1. The experiment in a line: cryo-EM structure; endogenous SIN3L complex purified from the Pst3-3×Flag S. pombe strain, cross-linked with 1 mM BS3; 20 mM HEPES pH 7.4, 50 mM NaCl, 2 mM DTT; 3.2 Å.

T1 sequence (Q09750 whole entry, canonical isoform): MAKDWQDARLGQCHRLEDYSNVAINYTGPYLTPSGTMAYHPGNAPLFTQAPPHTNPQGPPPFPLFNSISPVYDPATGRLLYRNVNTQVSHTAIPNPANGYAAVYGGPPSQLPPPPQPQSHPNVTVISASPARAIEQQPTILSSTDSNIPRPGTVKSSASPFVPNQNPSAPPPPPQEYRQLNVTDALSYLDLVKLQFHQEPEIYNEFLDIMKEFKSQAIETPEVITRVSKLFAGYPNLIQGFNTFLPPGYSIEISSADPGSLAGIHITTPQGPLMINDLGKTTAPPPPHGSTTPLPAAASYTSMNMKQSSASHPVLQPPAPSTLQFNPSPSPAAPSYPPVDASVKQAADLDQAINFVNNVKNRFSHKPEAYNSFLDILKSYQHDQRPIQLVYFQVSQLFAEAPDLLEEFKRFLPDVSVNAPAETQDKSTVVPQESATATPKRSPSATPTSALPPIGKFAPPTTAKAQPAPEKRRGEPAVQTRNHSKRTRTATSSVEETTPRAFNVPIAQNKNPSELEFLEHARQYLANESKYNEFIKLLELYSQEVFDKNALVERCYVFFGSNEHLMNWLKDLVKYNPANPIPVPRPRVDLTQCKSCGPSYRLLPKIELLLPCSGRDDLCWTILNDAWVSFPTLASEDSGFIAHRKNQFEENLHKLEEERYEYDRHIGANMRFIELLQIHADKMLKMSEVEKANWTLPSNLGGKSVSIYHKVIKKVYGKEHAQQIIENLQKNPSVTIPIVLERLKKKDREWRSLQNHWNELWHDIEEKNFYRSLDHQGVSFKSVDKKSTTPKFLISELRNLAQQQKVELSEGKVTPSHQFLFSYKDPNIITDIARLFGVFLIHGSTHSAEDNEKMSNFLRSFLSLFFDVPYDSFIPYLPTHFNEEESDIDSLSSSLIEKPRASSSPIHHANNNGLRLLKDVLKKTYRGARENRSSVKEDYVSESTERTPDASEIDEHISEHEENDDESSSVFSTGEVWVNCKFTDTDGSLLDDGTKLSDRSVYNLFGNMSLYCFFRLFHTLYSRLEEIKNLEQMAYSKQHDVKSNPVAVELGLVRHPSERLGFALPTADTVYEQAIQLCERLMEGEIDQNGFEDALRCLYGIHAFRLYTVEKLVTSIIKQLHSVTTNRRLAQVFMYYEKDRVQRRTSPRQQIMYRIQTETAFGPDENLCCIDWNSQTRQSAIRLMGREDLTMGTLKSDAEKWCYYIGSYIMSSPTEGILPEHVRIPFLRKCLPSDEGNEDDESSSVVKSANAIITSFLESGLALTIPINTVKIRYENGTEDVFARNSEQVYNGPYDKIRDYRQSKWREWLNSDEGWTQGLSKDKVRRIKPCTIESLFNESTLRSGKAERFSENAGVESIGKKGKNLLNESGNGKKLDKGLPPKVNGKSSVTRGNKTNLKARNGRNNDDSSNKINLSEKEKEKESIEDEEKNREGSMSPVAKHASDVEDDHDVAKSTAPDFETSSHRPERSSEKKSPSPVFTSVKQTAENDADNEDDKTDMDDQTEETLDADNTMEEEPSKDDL

For the molecule B1, the binding result in assay [1], in assay [2] and in assay [3] was “binds” each time.

On to B2, for which the binding result in assay [1], in assay [2] and in assay [3] was “binds” each time.

As for B3, the binding result in assay [2] and in assay [4] was “binds” throughout.
